US20130130288A1 (published 2013)
Substitutions are numbered along the chain they refer to. In names and notes the source's numbering stands.

B1: anti-ADDL antibody 19.3 (antibody, V domains shown)
VH: EVQLVESGGGLVQPGGSLRLSCAASGFTFSSFGMHWVRQAPGKGLEWVAYISRGSSTIYYADTVKGRFTISRDNAKNSLYLQMNSLRAEDTAVYYCARGITTALDYWGQGTLVTVSS
VL: DVVMTQSPLSLPVTPGEPASISCRSSQSIVHSNGNTYLEWYLQKPGQSPQLLIYKASNRFSGVPDRFSGSGSGTDFTLKISRVEAEDVGVYYCFQGSRLGPSFGQGTKLEIKR
B2: 19.3 N33S (antibody, V domains shown)
VH: B1 VH
VL: DVVMTQSPLSLPVTPGEPASISCRSSQSIVHSSGNTYLEWYLQKPGQSPQLLIYKASNRFSGVPDRFSGSGSGTDFTLKISRVEAEDVGVYYCFQGSRLGPSFGQGTKLEIL
B3: anti-ADDL antibody 13.1 (antibody, V domains shown)
VH: B1 VH
VL: B1 VL with R98K, L99A, G100H
B4: 19.3 N33T (antibody, V domains shown)
VH: B1 VH
VL: B2 VL with S33T
B5: anti-ADDL antibody 17.1 (antibody, V domains shown)
VH: B1 VH
VL: B1 VL with L99V, G100P, P101A
B6: anti-ADDL antibody 14.2 (antibody, V domains shown)
VH: B1 VH
VL: B1 VL with L99V, G100P, S102G
B7: anti-ADDL antibody 11.4 (antibody, V domains shown)
VH: B1 VH
VL: B1 VL with L99V, G100P, P101V, S102R

Tests used:
[1] = target: T1, amyloid β-derived diffusible ligands (ADDLs), oligomers of Aβ1-42; experiment: competitive ELISA
T1 construct: number of copies not defined; also called Aβ oligomers; Aβ oligomer

[2] = target: T1, amyloid β-derived diffusible ligands …; experiment: BIACORE (SPR)
Aβ1-40 monomer [3] = target: T2, Aβ1-40 monomer; experiment: BIACORE (SPR)
T2 construct: also called Aβ40 monomer; monomer Aβ

[4] = target: T1, amyloid β-derived diffusible ligands …; experiment: ELISA, IgG2 antibodies
[5] = target: T1, amyloid β-derived diffusible ligands …; experiment: KINEXA, equilibrium constant in solution
Aβ1-40 monomer [6] = target: T2, Aβ1-40 monomer; experiment: KINEXA, equilibrium constant in solution
[7] = target: T1, amyloid β-derived diffusible ligands …; experiment: one-sided ELISA on coated Aβ oligomers or Aβ1-40
[8] = target: T1, amyloid β-derived diffusible ligands …; experiment: KINEXA; constant for Aβ1-40 over constant for ADDLs
[9] = target: T1, amyloid β-derived diffusible ligands …; experiment: competitive ELISA, ratio of the two competition EC50 values
[10] = target: T1, amyloid β-derived diffusible ligands …; experiment: BIACORE (SPR); affinity for Aβ1-40 over affinity for ADDLs
[11] = target: T1, amyloid β-derived diffusible ligands …; experiment: ERENNA sandwich immunoassay, 19.3 capture, labelled 82E1 detection
Aβ1-40 monomer [12] = target: T2, Aβ1-40 monomer; experiment: ELISA on coated antigen, chemiluminescence; antibody at 0 timepoint
[13] = target: T1, amyloid β-derived diffusible ligands …; experiment: sandwich ELISA, 19.3 capture and 82E1 detection, luminescence (ENVISION)
Aβ1-40 monomer [14] = target: T2, Aβ1-40 monomer; experiment: one-sided ELISA, plate coated with 100 pmol/well Aβ1-40, chemiluminescence
Aβ1-40 monomer [15] = target: T2, Aβ1-40 monomer; experiment: ELISA on coated antigen, chemiluminescence; antibody stored 1 month at 4°
Aβ1-40 monomer [16] = target: T2, Aβ1-40 monomer; experiment: ELISA on coated antigen, chemiluminescence; antibody stored 1 month at 25°
Aβ1-40 monomer [17] = target: T2, Aβ1-40 monomer; experiment: ELISA on coated antigen, chemiluminescence; antibody stored 1 month at 40°
[18] = target: T1, amyloid β-derived diffusible ligands …; experiment: one-sided ELISA, plate coated with 50 pmol/well Aβ oligomers, chemiluminescence
[19] = target: T1, amyloid β-derived diffusible ligands …; experiment: … bead-based immunoassay; signal at 0.2 pM ADDLs greater than at 1000 pM Aβ1-40
[20] = target: T1, amyloid β-derived diffusible ligands …; experiment: three-pronged Aβ ELISA (M90/1 polyclonal capture); ratio of binding to ADDLs over fibrillar Aβ
[21] = target: T1, amyloid β-derived diffusible ligands …; experiment: three-pronged Aβ ELISA (M90/1 polyclonal capture); ratio of binding to ADDLs over monomeric Aβ

Binder	EC50 (Aβ1-40 monomer [12])	EC50 (Aβ1-40 monomer [15])	EC50 (Aβ1-40 monomer [17])	ADDL:Fibrillar [20]	ADDL:Monomer [21]	other results
B1	10.1 nM	16.3 nM	88.8 nM	2 ratio	2.5 ratio	fold higher concentration of Aβ1-40 needed to displace 50% of 19.3 from Aβ oligomers than of Aβ oligomers to displace 19.3 from Aβ1-40 [1]: ~600 fold; Kd [2]: 4.8 nM; Kd (Aβ1-40 monomer [3]): 150 nM; EC50 [4]: 0.8 nM; Kd [5]: 2.7 nM; Kd (Aβ1-40 monomer [6]): 16.7 nM; fold greater potency for Aβ oligomers as compared to Aβ40 monomer [7]: ~3.7 fold; Ratio (Aβ monomer/ADDL) [8]: ~6.2 ratio; affinity for Aβ1-42 oligomers compared to Aβ1-40 monomers [9]: ~630 ratio; Ratio (Aβ monomer/ADDL) [10]: ~31 ratio; fold selectivity of the assay for Aβ oligomers over Aβ 40 monomer [11]: 5000 fold; fold selectivity for Aβ oligomer signal as compared to Aβ40 monomers [13]: ~1000 fold; EC50 (Aβ1-40 monomer [14]): ~4.3 nM; EC50 (Aβ1-40 monomer [16]): 22.1 nM; EC50 [18]: ~1.6 nM; ADDL versus monomeric Aβ selectivity [19]: ~5000 fold
B2	55.1 nM	59.1 nM	29.9 nM	–	–	EC50 (Aβ1-40 monomer [16]): 24.3 nM
B3	–	–	–	2 ratio	2.4 ratio	–
B4	332 nM	307 nM	96.3 nM	–	–	–
B5	–	–	–	2.1 ratio	3.2 ratio	–
B6	–	–	–	–	4.2 ratio	–
B7	–	–	–	2.4 ratio	2.4 ratio	–
